Data reported in publication doi:10.1101/385401 (bioRxiv, 2018).
Like-named read-outs stand apart in the source and are kept apart here.

Assays:
crystal structure = target: the molecule itself; experiment: crystal structure
[1] = target: the molecule itself

Row | Protein | stoichiometry N (crystal structure) | stoichiometry N [1]
1 | Escherichia coli (Ec) dGTPase, wild type (enzyme, UniProt P15723 1-505, looked up) MAQIDFRKKINWHRRYRSPQGVKTEHEILRIFESDRGRIINSPAIRRLQQKTQVFPLERNAAVRTRLTHSMEVQQVGRYIAKEILSRLKELKLLEAYGLDELTGPFESIVEMSCLMHDIGNPPFGHFGEAAINDWFRQRLHPEDAESQPLTDDRCSVAALRLRDGEEPLNELRRKIRQDLCHFEGNAQGIRLVHTLMRMNLTWAQVGGILKYTRPAWWRGETPETHHYLMKKPGYYLSEEAYIARLRKELNLALYSRFPLTWIMEAADDISYCVADLEDAVEKRIFTVEQLYHHLHEAWGQHEKGSLFSLVVENAWEKSRSNSLSRSTEDQFFMYLRVNTLNKLVPYAAQRFIDNLPAIFAGTFNHALLEDASECSDLLKLYKNVAVKHVFSHPDVERLELQGYRVISGLLEIYRPLLSLSLSDFTELVEKERVKRFPIESRLFHKLSTRHRLAYVEAVSKLPSDSPEFPLWEYYYRCRLLQDYISGMTDLYAWDEYRRLMAVEQ | 6 | 
2 | Ec-dGTPase H126A variant (enzyme, Escherichia coli, UniProt P15723 1-505, looked up) MAQIDFRKKINWHRRYRSPQGVKTEHEILRIFESDRGRIINSPAIRRLQQKTQVFPLERNAAVRTRLTHSMEVQQVGRYIAKEILSRLKELKLLEAYGLDELTGPFESIVEMSCLMHDIGNPPFGAFGEAAINDWFRQRLHPEDAESQPLTDDRCSVAALRLRDGEEPLNELRRKIRQDLCHFEGNAQGIRLVHTLMRMNLTWAQVGGILKYTRPAWWRGETPETHHYLMKKPGYYLSEEAYIARLRKELNLALYSRFPLTWIMEAADDISYCVADLEDAVEKRIFTVEQLYHHLHEAWGQHEKGSLFSLVVENAWEKSRSNSLSRSTEDQFFMYLRVNTLNKLVPYAAQRFIDNLPAIFAGTFNHALLEDASECSDLLKLYKNVAVKHVFSHPDVERLELQGYRVISGLLEIYRPLLSLSLSDFTELVEKERVKRFPIESRLFHKLSTRHRLAYVEAVSKLPSDSPEFPLWEYYYRCRLLQDYISGMTDLYAWDEYRRLMAVEQ |  | 6
3 | Ec-dGTPase Y272A variant (enzyme, Escherichia coli, UniProt P15723 1-505, looked up) MAQIDFRKKINWHRRYRSPQGVKTEHEILRIFESDRGRIINSPAIRRLQQKTQVFPLERNAAVRTRLTHSMEVQQVGRYIAKEILSRLKELKLLEAYGLDELTGPFESIVEMSCLMHDIGNPPFGHFGEAAINDWFRQRLHPEDAESQPLTDDRCSVAALRLRDGEEPLNELRRKIRQDLCHFEGNAQGIRLVHTLMRMNLTWAQVGGILKYTRPAWWRGETPETHHYLMKKPGYYLSEEAYIARLRKELNLALYSRFPLTWIMEAADDISACVADLEDAVEKRIFTVEQLYHHLHEAWGQHEKGSLFSLVVENAWEKSRSNSLSRSTEDQFFMYLRVNTLNKLVPYAAQRFIDNLPAIFAGTFNHALLEDASECSDLLKLYKNVAVKHVFSHPDVERLELQGYRVISGLLEIYRPLLSLSLSDFTELVEKERVKRFPIESRLFHKLSTRHRLAYVEAVSKLPSDSPEFPLWEYYYRCRLLQDYISGMTDLYAWDEYRRLMAVEQ |  | 6
4 | selenium methionine labelled Ec-dGTPase (enzyme, Escherichia coli, UniProt P15723 1-505, looked up, selenium methionine labelled) MAQIDFRKKINWHRRYRSPQGVKTEHEILRIFESDRGRIINSPAIRRLQQKTQVFPLERNAAVRTRLTHSMEVQQVGRYIAKEILSRLKELKLLEAYGLDELTGPFESIVEMSCLMHDIGNPPFGHFGEAAINDWFRQRLHPEDAESQPLTDDRCSVAALRLRDGEEPLNELRRKIRQDLCHFEGNAQGIRLVHTLMRMNLTWAQVGGILKYTRPAWWRGETPETHHYLMKKPGYYLSEEAYIARLRKELNLALYSRFPLTWIMEAADDISYCVADLEDAVEKRIFTVEQLYHHLHEAWGQHEKGSLFSLVVENAWEKSRSNSLSRSTEDQFFMYLRVNTLNKLVPYAAQRFIDNLPAIFAGTFNHALLEDASECSDLLKLYKNVAVKHVFSHPDVERLELQGYRVISGLLEIYRPLLSLSLSDFTELVEKERVKRFPIESRLFHKLSTRHRLAYVEAVSKLPSDSPEFPLWEYYYRCRLLQDYISGMTDLYAWDEYRRLMAVEQ | 6 | 
5 | Ec-dGTPase E129A variant (enzyme, Escherichia coli, UniProt P15723 1-505, looked up) MAQIDFRKKINWHRRYRSPQGVKTEHEILRIFESDRGRIINSPAIRRLQQKTQVFPLERNAAVRTRLTHSMEVQQVGRYIAKEILSRLKELKLLEAYGLDELTGPFESIVEMSCLMHDIGNPPFGHFGAAAINDWFRQRLHPEDAESQPLTDDRCSVAALRLRDGEEPLNELRRKIRQDLCHFEGNAQGIRLVHTLMRMNLTWAQVGGILKYTRPAWWRGETPETHHYLMKKPGYYLSEEAYIARLRKELNLALYSRFPLTWIMEAADDISYCVADLEDAVEKRIFTVEQLYHHLHEAWGQHEKGSLFSLVVENAWEKSRSNSLSRSTEDQFFMYLRVNTLNKLVPYAAQRFIDNLPAIFAGTFNHALLEDASECSDLLKLYKNVAVKHVFSHPDVERLELQGYRVISGLLEIYRPLLSLSLSDFTELVEKERVKRFPIESRLFHKLSTRHRLAYVEAVSKLPSDSPEFPLWEYYYRCRLLQDYISGMTDLYAWDEYRRLMAVEQ |  | 6
